“Also recorded” adds a separate entry of the source.
Key:
HER2 = HER2 (Homo sapiens, UniProt P04626); experiment: ELISA monitoring of anti-HER2 affitin selection; assay type: binding; settings: end of selection process
From the text: (§1) To selectively target HER2 receptor, a library of affitins has been enriched against the target by several consecutive rounds of screening (up to 6 rounds). The enrichment of anti-HER2 affitins has been followed after any selection round by ELISA assay monitoring, also controlling the condition of negligible binding to human (HSA), murine (MSA) and bovine (BSA) serum albumin.

[1] = tested on: human (HSA), murine (MSA) and bovine (BSA) serum albumin; experiment: ELISA control of binding to serum albumins during selection
From the text: as §1

[2] = tested on: SK-BR-3 breast adenocarcinoma cell line (overexpressing HER2 receptor); experiment: Cell internalization assay (viability with Pe38 fusion), HER2 overexpressing cells; assay type: cell-based
Procedure: (§2) The cells internalization of Aff01 was evaluated using a dedicated cell-based assay. Briefly, Aff01 was tagged with SEQ ID NO: 3 (i.e. forming sequence Aff02-0) and then fused to a truncated portion of Pseudomonas exotoxin A, wherein the cell internalization domain of the toxin is removed, thus forming a final peptide with the sequence as set out in SEQ ID NO: 5. Such truncated form (Pe38) needs to be internalized by means of the Aff01 to keep its cytotoxic activity.
(§3) To test internalization, then, the viability of the breast adenocarcinoma cell line SK-BR-3 (overexpressing HER2 receptor) and of the breast cancer cell line MCF-7 (low expressing HER2 receptor) was measured at different nanofitin concentrations.

[3] = tested on: MCF-7 breast cancer cell line (low expressing HER2 receptor); experiment: Cell internalization assay (viability with Pe38 fusion), HER2 low expressing cells; assay type: cell-based; settings: Aff01 tested as fusion Aff02-0/Pe38 (SEQ ID NO: 5); different nanofitin concentrations
Procedure: as §2, §3

[4] = molecular target: T1, recombinant human protein hHER2 (R&D Systems) (human, UniProt P04626 23-652); experiment: BLI (Octet), hHER2 on Protein A biosensors, steady state analysis
T1 construct: also called human HER2 (hHER2) recombinant protein

[5] = molecular target: T2, human HER2 (hHER2) recombinant protein (Homo sapiens, UniProt P04626); experiment: Biolayer interferometry (BLI) affinity assay on protein A biosensors coated with hHER2; settings: 1:1 binding fit model
T2 construct: purchased R&D Systems
Procedure: (§4) Affinity experiments were performed by Biolayer Interferometry (BLI) assay, using an Octet System and Protein A biosensors (ForteBio). Recombinant human protein hHER2 was purchased from R&D Systems (Minneapolis, US).
(§5) The affinity of the polypeptides of the invention for the target HER2 was measured by Biolayer interferometry assay. To this purpose, the protein A biosensors (ForteBio) were coated with human HER2 (hHER2) recombinant protein. After a brief wash with PBS, the coated sensor was assayed versus the affitin Aff02-0 at different concentrations (i.e. […], 500, 250, 125, 62.5, 31.3, 15.6 and 0 nM).
(§6) A curve fitting analysis was then performed in order to determine the dissociation equilibrium constant. The sensorgrams were analyzed using the Octet Data Analysis software 8.2 (ForteBio) with a 1:1 binding fit model to determine the dissociation equilibrium constant (Kd) and the related association and dissociation rate constants (kon and koff) with R^2 value assessing the fitting quality.
as §5, with “IRDye800CW-Aff02 conjugate to” for “polypeptides of the invention for”, “IRDye800CW-Aff02 conjugate” for “affitin Aff02-0”, “1000, 100, 10, 1, 0.1 ng/mL).” for “500, 250, 125, 62.5, 31.3, 15.6 and 0 nM).”
A steady state analysis was performed in order to determine the dissociation equilibrium constant. The sensorgrams were analyzed using the Octet Data Analysis software 8.2 (ForteBio) with a 1:1 binding fit model to determine the dissociation equilibrium constant (Kd).

[6] = parameters: species or system Balb/c nu/nu mice; settings: mouse, in vivo
Procedure: In vivo imaging experiments were performed using the IVIS Spectrum In Vivo Imaging System (Perkin Elmer Inc.), equipped with 10 narrow band excitation filters (30 nm bandwidth) and 18 narrow band emission filters (20 nm bandwidth) spanning 430-850 nm.
In vivo optical imaging biodistribution of IRDye800CW-Aff02 was evaluated in healthy mice. Optical Imaging experiments on three healthy mice were performed using an IVIS Spectrum system after administration of IRDye800CW-Aff02 at a dose of 10 nmol/mouse, in an administration volume of 0.2 mL. The experiments were carried out at 15 min, 30 min, 1 h, 2 h, 4 h, 6 h, 24 h and 48 hours after intravenous administration of the conjugate.
Regions of interest (ROIs) were drawn on a reference background healthy region (hind leg's muscle) of the mouse and on whole body for each fluorescence image at every time point to evaluate signal intensity in the tissues, expressed as Average Radiant Efficiency (see FIG. 5, reporting the fluorescence signal curves of IRDye800CW-Aff02 administered 10 nmol/mouse in Balb/c nu/nu mice).
Pharmacokinetic analysis of the signal was performed to evaluate the half time of the tested product by using a mono-exponential decay model and the results are reported in Table 3:
After sacrifice, several organs were collected for the measure of residual fluorescence (after 48h). The measurements of fluorescence signal intensity have been obtained from the analysis of each organ selecting an area of interest (ROIs) at the center of each sample. The analyzed organs were: kidney, lung, spleen, liver, muscle and heart.

HER2/Fc chimeric protein = molecular target: T3, HER2/Fc chimeric protein (Homo sapiens, UniProt P04626); experiment: Competitive ELISA of Aff02 versus trastuzumab-biotin or pertuzumab-biotin; assay type: binding
T3 construct: Fc (immunoglobulin Fc fusion partner)
From the text: A competitive ELISA assay has been developed in order to investigate if the epitope of the HER2/Neu antigen recognized by Aff02 polypeptide was distinct from the epitope recognized by the humanized monoclonal antibodies trastuzumab and pertuzumab, actually used in therapeutic treatments of HER2-positive tumors.
The first experiment, aimed at evaluating the quality of the assay, was a competitive ELISA assay carried out between trastuzumab and trastuzumab-biotin. Briefly, a Medisorp transparent plastic plate (96 wells, Thermo Scientific), was coated (64 wells) with 2.5 μg/mL of HER2/Fc chimeric protein in TBS pH 7.4 (1 h, RT). The wells were blocked with 0.5% BSA in TBS (1 h, RT).
At the end of the incubation, the plate was washed three times with 250 μL of TBS-T and incubated with Streptavidin-HRP 1:10000 in TBS-T (1 h at RT). The plate was washed again 3 times with TBS-T and developed 5 min with TMB reagent (100 μL). The reaction was blocked with 50 μL of sulfuric acid 2 M and read at 450 nm.
As positive control, the same experiment was repeated using an antibody anti RSGH TAG-HRP (1:4000) in place of streptavidin-HRP, in order to evaluate the curve affinity of Aff02 to HER2 receptor.
Briefly, a Medisorp transparent plastic plate (96 wells, Thermo Scientific) was coated (64 wells) with 2.5 μg/mL of Her2/Fc chimeric protein in TBS pH 7.4 (1 h, RT). The wells was blocked with 0.5% BSA in TBS (1 h, RT). […] At the end of the incubation, the plate was washed three times with 300 μL of TBS-T and incubated with Streptavidin-HRP 1:10000 or anti-RSGH TAG-HRP 1:4000 in TBS-T (1 h at RT). The plate was washed again 3 times with TBS-T and developed 5 min with TMB reagent (100 μL). The reaction was blocked with 50 μL of sulfuric acid 2 M and read at 450 nm.

[7] = molecular target: T1, recombinant human protein hHER2 (R&D …); experiment: BLI (Octet), hHER2 on Protein A biosensors, 1:1 fit
Procedure: as §4, §5
as §6, with “(kₒₙ” for “(kon”, “R²” for “R^2”

B1: Aff01: 64 aac anti-HER2 affitin, SEQ ID NO: 1 (protein)
chain: VKVKFWGAGVEKEVDTSKITWVTRSGKYVIFTYDDNGKAGPGRVPEKDAPKELLDMLARAEREK
In the case of B1, the “affinity to HER2” value (HER2) is reported as “nanomolar affinity”, the binding to albumin [1] is reported as “absence of binding to albumin” and the “cytotoxic induction (cell viability) on SK-BR-3 cells” value ([2]; Aff01 tested as fusion Aff02-0/Pe38 (SEQ ID NO: 5), different nanofitin concentrations) is reported as “dose-dependent cytotoxic induction”. The “cell internalization through HER2 receptor” value ([2]; concluded from cell death induction by Pe38 fusion) was “effective transport of Pe38 through HER2 receptor” and the “alteration of cell viability on MCF-7 cells” value [3] was “no significant alterations”.

B2: IRDye800CW-Aff02 conjugate (designed binder)
chain: MRGSHHHHHHGSVKVKFWGAGVEKEVDTSKITWVTRSGKYVIFTYDDNGKAGPGRVPEKDAPKELLDMLARAEREKC
modifications: chain 1 pos 77: Cys carrying IRDye800CW through a maleimide thioether, written C
notes: Aff02 was reduced with TCEP, then coupled to IRDye800CW-maleimide at the C-terminal Cys
In the case of B2, the Kd [4] is reported as 1.6 nM.

B3: IRDye800CW-Aff02: fluorophore IRDye800CW-maleimide conjugated to the C-terminal cysteine of affitin Aff02 (conjugate)
chain: B2 chain
modifications: cyclised or stapled
For B3, the “Kd (dissociation equilibrium constant) of the complex IRDye800CW-Aff02 conjugate/hHER2” value ([5]; steady state analysis) was “in the nanomolar range”, the clearance pathway [6] was “preferably cleared by the renal pathway” and the “Half life in muscle” value ([6]; iv) was 2.122 h. The “Half life in whole body” value ([6]; iv) was 2.196 h and the “average half-life (muscle and whole body)” value ([6]; iv) was 2.16 h.

B4: Aff02: 77 aac variant of SEQ ID NO: 1 with a Cys at the C-terminus and a hexahistidine tag at the N-terminus (protein)
chain: B2 chain
With B4 the “competition with trastuzumab and pertuzumab for binding to HER2, assay c / overall” value (HER2/Fc chimeric protein; antibody-biotin curves in presence or absence of Aff02, FIGS. 4a, 4b) was “no competition; also recorded: do not compete for binding to HER2”, the “binding to HER2 receptor (ELISA)” value (HER2/Fc chimeric protein; assay a, FIG. 2) was “binders for HER2 receptor” and the “Aff02 response (anti RSGH-Tag Ab detection) with increasing trastuzumab-biotin or pertuzumab-biotin, assay b” value (HER2/Fc chimeric protein; fixed 10 μg/mL Aff02, variable antibody-biotin, FIGS. 3a, 3b) was “negligible response decrease”. The “epitope competition, assay a” value (HER2/Fc chimeric protein; variable Aff02 (0.01-10000 ng/mL) with 0.2 μg/mL trastuzumab-biotin or pertuzumab-biotin, FIG. 2) was “epitopes recognized by trastuzumab and pertuzumab are different from that recognized by Aff02”.

B5: affitin Aff02-0 (designed binder)
chain: MRGSHHHHHHGSVKVKFWGAGVEKEVDTSKITWVTRSGKYVIFTYDDNGKAGPGRVPEKDAPKELLDMLARAEREK
notes: also called unlabeled Aff02-0 affitin
With B5 the koff ([5]; unlabeled affitin) was 8.3 ± 0.1 × 10^−3 s^−1, the kon ([5]; unlabeled affitin) was 4.5 ± 0.1 × 10^5 M^−1s^−1 and the Kd [7] was 18 nM. The koff [7] was 0.0083 s⁻¹ and the kon [7] was 450000 M⁻¹ s⁻¹.
